Series [1] has as its system HeLa Kyoto. As to the kind of experiment: solubility in G1/S (NP-40 vs SDS abundance) (log2 ratio); higher = more soluble. The conditions noted are these: cell cycle stage: G1/S.
The subject of series [2] is HeLa Kyoto. As to the kind of experiment: melting temperature (median over replicates), in situ; higher = more thermally stable.
In series [3] the test system is HeLa Kyoto. As to the kind of experiment: solubility change mitosis vs G1/S (difference of NP-40 vs SDS log2 ratios) (log2 ratio difference); higher = more soluble in mitosis.
Series [4] relates to HeLa Kyoto. As to the kind of experiment: thermal stability score vs G1/S (z-score of summed log2 fold changes over temperatures); higher = more thermally stable than in G1/S.
Where [5] appears, read: cell cycle stage: early G1 (4.5 h after nocodazole release).

The values that follow come from the supplement of paper PMC5998384.
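Throughout, for melting temperature (median over replicates), in situ: HeLa Kyoto cells synchronized by double thymidine or nocodazole block, proteins quantified by TMT10plex mass spectrometry, three independent biological replicates.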
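Throughout, for solubility change mitosis vs G1/S (difference of NP-40 vs SDS log2 ratios): synchronized HeLa Kyoto cells (double thymidine block for G1/S, nocodazole release for mitosis), protein amounts in NP-40 versus SDS lysates quantified by mass spectrometry, three biological replicates.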
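Throughout, for solubility in G1/S (NP-40 vs SDS abundance): HeLa Kyoto cells arrested at G1/S by double thymidine block, proteins quantified by TMT10plex mass spectrometry in mild NP-40 versus SDS extracts, three biological replicates.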
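Throughout, for thermal stability score vs G1/S (z-score of summed log2 fold changes over temperatures): synchronized HeLa Kyoto cells, proteins quantified by TMT10plex mass spectrometry, three biological replicates, mitosis taken 0.5 h after nocodazole release, G1/S directly after double thymidine block.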

Regarding “MSLSHLYRDGEGRIDDDDDERENFEITDWDLQNEFNPNRQRHWQTKEEATYGVWAERDSDDERPSFGGKRARDYSAPVNFISAGLKKGAAEEAELEDSDDEEKPVKQDDFPKDFGPRKLKTGGNFKPSQKGFAGGTKSFMDFGSWERHTKGIGQKLLQKMGYVPGRGLGKNAQGIINPIEAKQRKGKGAVGAYGSERTTQSMQDFPVVDSEEEAEEEFQKELSQWRKDPSGSKKKPKYSYKTVEELKAKGRISKKLTAPQKELSQVKVIDMTGREQKVYYSYSQISHKHNVPDDGLPLQSQQLPQSGKEAKAPGFALPELEHNLQLLIDLTEQEIIQNDRQLQYERDMVVNLFHELEKMTEVLDHEERVISNLSKVLEMVEECERRMQPDCSNPLTLDECARIFETLQDKYYEEYRMSDRVDLAVAIVYPLMKEYFKEWDPLKDCTYGTEIISKWKSLLENDQLLSHGGQDLSADAFHRLIWEVWMPFVRNIVTQWQPRNCDPMVDFLDSWVHIIPVWILDNILDQLIFPKLQKEVENWNPLTDTVPIHSWIHPWLPLMQARLEPLYSPIRSKLSSALQKWHPSDSSAKLILQPWKDVFTPGSWEAFMVKNIVPKLGMCLGELVINPHQQHMDAFYWVIDWEGMISVSSLVGLLEKHFFPKWLQVLCSWLSNSPNYEEITKWYLGWKSMFSDQVLAHPSVKDKFNEALDIMNRAVSSNVGAYMQPGARENIAYLTHTERRKDFQYEAMQERREAENMAQRGIGVAASSVPMNFKDLIETKAEEHNIVFMPVIGKRHEGKQLYTFGRIVIYIDRGVVFVQGEKTWVPTSLQSLIDMAK [TFIP11]”, in the series on HeLa Kyoto [1], the “solubility in G1/S (log2)” value is -0.472. Besides, the melting temperature in the series with HeLa Kyoto [2] (cell cycle stage: G1/S) was 48.4 °C; with HeLa Kyoto [2] (cell cycle stage: mitosis) it was 48.9 °C. Moreover, the “solubility change mitosis (log2)” value in the series on HeLa Kyoto [3] amounted to 0.115. Further, the thermal stability score in the series with HeLa Kyoto [4] (setting [5]) worked out at 0.21; in the series with HeLa Kyoto [4] (cell cycle stage: mitosis) it was 1.2.

“MSLSNKLTLDKLDVKGKRVVMRVDFNVPMKNNQITNNQRIKAAVPSIKFCLDNGAKSVVLMSHLGRPDGVPMPDKYSLEPVAVELKSLLGKDVLFLKDCVGPEVEKACANPAAGSVILLENLRFHVEEEGKGKDASGNKVKAEPAKIEAFRASLSKLGDVYVNDAFGTAHRAHSSMVGVNLPQKAGGFLMKKELNYFAKALESPERPFLAILGGAKVADKIQLINNMLDKVNEMIIGGGMAFTFLKVLNNMEIGTSLFDEEGAKIVKDLMSKAEKNGVKITLPVDFVTADKFDENAKTGQATVASGIPAGWMGLDCGPESSKKYAEAVTRAKQIVWNGPVGVFEWEAFARGTKALMDEVVKATSRGCITIIGGGDTATCCAKWNTEDKVSHVSTGGGASLELLEGKVLPGVDALSNI [PGK1]”: in the series on HeLa Kyoto [1], the “solubility in G1/S (log2)” value turned out to be 0.376. Further, the melting temperature with HeLa Kyoto [2] (cell cycle stage: G1/S) was 53.8 °C; in the series with HeLa Kyoto [2] (cell cycle stage: mitosis), 53.9 °C. Further, the “solubility change mitosis (log2)” value in the series on HeLa Kyoto [3] is -0.0583. In addition, the values for the thermal stability score in the series on HeLa Kyoto [4] (setting [5]) and with HeLa Kyoto [4] (cell cycle stage: mitosis) were 1.07 and 0.993, respectively.

Take “MSLTSSSSVRVEWIAAVTIAAGTAAIGYLAYKRFYVKDHRNKAMINLHIQKDNPKIVHAFDMEDLGDKAVYCRCWRSKKFPFCDGAHTKHNEETGDNVGPLIIKKKET [CISD1]”: the “solubility in G1/S (log2)” value with HeLa Kyoto [1] worked out at 0.633. Moreover, the melting temperature was determined as 57.1 °C in the series on HeLa Kyoto [2] (cell cycle stage: G1/S) and 55.3 °C in the series with HeLa Kyoto [2] (cell cycle stage: mitosis). The “solubility change mitosis (log2)” value in the series with HeLa Kyoto [3] was 0.0262. Also, the thermal stability score in the series with HeLa Kyoto [4] (setting [5]) is -0.277; with HeLa Kyoto [4] (cell cycle stage: mitosis), -1.59.

In the case of “MSLVAYASSDESEPDEAEPEPEEEEAVAPTSGPALGGLFASLPAPKGPALLPPPPQMLAPAFPPPLLLPPPTGDPRLQPPPPLPFGLGGFPPPPGVSPAEAAGVGEGLGLGLPSPRGPGLNLPPPIGGAGPPLGLPKPKKRKEPVKIAAPELHKGDSDSEEDEPTKKKTILQGSSEGTGLSALLPQPKNLTVKETNRLLLPHAFSRKPSDGSPDTKPSRLASKTKTSSLAPVVGTTTTTPSPSAIKAAAKSAALQVTKQITQEEDDSDEEVAPENFFSLPEKAEPPGVEPYPYPIPTVPEELPPGTEPEPAFQDDAANAPLEFKMAAGSSGAPWMPKPGDDYSYNQFSTYGDANAAGAYYQDYYSGGYYPAQDPALVPPQEIAPDASFIDDEAFKRLQGKRNRGREEINFVEIKGDDQLSGAQQWMTKSLTEEKTMKSFSKKKGEQPTGQQRRKHQITYLIHQAKERELELKNTWSENKLSRRQTQAKYGF [PRCC]”, the “solubility in G1/S (log2)” value with HeLa Kyoto [1] was 0.46. In addition, the values for the melting temperature in the series with HeLa Kyoto [2] (cell cycle stage: G1/S) and in the series on HeLa Kyoto [2] (cell cycle stage: mitosis) were 53.2 °C and 53.8 °C, respectively. Further, the “solubility change mitosis (log2)” value in the series on HeLa Kyoto [3] was -0.00665. Further, the thermal stability score with HeLa Kyoto [4] (setting [5]) was -2.8; with HeLa Kyoto [4] (cell cycle stage: mitosis), -0.438.
